Data as given in PMC10514136, “Peptide-conjugated antimiRs improve myotonic dystrophy type 1 phenotypes by promoting endogenous MBNL1 expression” (Molecular Therapy. Nucleic Acids, 2023).
“And” between values parts separate entries of the source, which are not always exact repeats. Equal entries are not always repeated.

Tests used:
Mbnl1 protein = assay: Western blot of Mbnl1 in mouse muscle; type: in vivo; set-up: scale not given here; details: HSALR mice, quadriceps, same value given for every mouse of a treatment group
Procedure: (§1) A 96-well plate QDB assay was used[87] to determine MBNL1 protein levels in all replicates and concentrations of each ON tested. This technique allows for high-throughput screening of low protein concentration samples over conventional western blot (WB) (Figure S9).[88] Cell samples (1 μg/well) and mice samples (2 μg/well) were prepared with 4× loading buffer, denatured (100°C for 5 min) and loaded in QDB plates (Quanticision Diagnostics, Research Triangle Park, NC). For the quantification of in vitro samples, the QDB was performed exactly as described in Moreno et al.[87] Each cell sample was loaded in quadruplicate in two different plates; one was used to detect MBNL1 (it was incubated overnight with primary mouse anti-MBNL1 [1:1,000, Abcam, ab77017]) and the other for GAPDH (it was incubated overnight with primary mouse anti-GAPDH [1:500, Santa Cruz, clone G-9]), which was used here as an endogenous control. For Mbnl1 quantification in mouse muscle tissues, we implemented the following modifications: each sample was loaded in quadruplicate on three different plates. One was used to detect Mbnl1 with a mouse MB1a(4A8) antibody (DSHB, Iowa City, IA) using a 1:200 dilution. A second plate was used to quantify tubulin (endogenous normalization control) with a mouse 12G10 antibody (DSHB) using a 1:1,000 dilution. A third plate was used to quantify IgG signal (negative control to subtract background) using an anti-mouse-IgG secondary antibody (Sigma-Aldrich) at 1:3,500 dilution. This subtraction was necessary due to an unspecific IgG signal could be observed in mouse samples (Figures S10A–S10D). All primary antibodies were detected using horseradish peroxidase-conjugated anti-mouse-IgG secondary antibody (1:5,000 for the anti-mouse plate, 1:2,000 for cell plates, and 1:3,500 for mouse plates [Sigma-Aldrich, MO]). Immunoreactive bands were detected using Pierce ECL Western reagent (Thermo Scientific), and luminescence levels were determined using an Infinite M200 PRO plate reader (Tecan). The validity of this correction for QDB quantification of mouse samples was confirmed by performing a series of experiments determining both the window of linearity of the assay (2–5 μg protein, Figures S10A–S10B) and the comparison with data obtained by WB in a subset of samples (Figures S10E–S10H), obtaining a correlation of 0.9927 for MBNL1 and 0.8678 for tubulin (in the case of quadriceps), and 0.9821 for MBNL1 and 0.9699 for tubulin (in gastrocnemius). For WB assay in quadriceps (Figure S10I), samples were loaded in pools of each treatment to have a representative WB of all the treatments tested. WB assay was performed as described previously.[20]

[1] = tested on: MBNL1 protein levels in DM1 cells; assay: MBNL1 protein levels by QDB in DM1 cells after gymnotic delivery; type: cell-based, human; details: for MBNL1 protein levels vs untreated DM1 cells: gymnosis at the EC50 concentration of each compound; for MBNL1 fold change: gymnotic delivery
Procedure: Immortalized MyoD-inducible (doxycycline) DM1 and control fibroblasts were kindly provided by Dr Furling (Institute of Myology, Paris, France).[38] For the activity assay, cells were seeded in 6-well plates at a density of 8 × 10^4 cells/well and grown in DMEM with 4.5 g/L glucose, 1% P/S, and 10% FBS (Sigma, St. Louis, MO). To transdifferentiate fibroblasts into myoblasts by inducing MyoD expression, the cells were plated in muscle differentiation medium containing DMEM with 4.5 g L^−1 glucose, 1% P/S, 2% horse serum, 1% apo-transferrin (10 mg mL^−1), 0.1% insulin (10 mg mL^−1), and 0.02% doxycycline (10 mg mL^−1). In all cases, the cells were grown at 37°C in a humidified atmosphere containing 5% CO2. Transdifferentiation was induced at day 0, and transfection was performed by lipofection with X-tremeGENE HP (Roche, Basel, Switzerland) 24 h later, with antimiRs and test compounds in the cell medium at different concentrations (from 0.4 nM to 5 μM). The medium was replaced with fresh differentiation medium 4 h afterward. In the gymnosis assay, test compounds were added to the culture medium only at the corresponding EC50 concentration. Cells were collected on day 4 of differentiation and were processed for protein extraction.
as §1

[2] = ELISA determination of antimiR conjugate concentrations in tissues; type: in vivo, mouse; details: HSALR mice, 9.2 mg/kg (mean) i.v. x3, day 45, hybridization ELISA, background subtracted, individual mice
Procedure: Custom ELISA-based measurements of antimiR conjugate concentrations in brain, kidney, liver, heart, gastrocnemius, and quadriceps from treated HSA^LR mice were performed as described in Burki et al.,[89] using the following phosphorothioate probes: for miR-218 (5′ → 3′) [DIG] T∗T∗G∗T∗G∗C∗T∗TGATCTA∗A∗C∗C∗A∗T∗G∗T [BIO]; for miR-23b (5′ → 3′) [BIO] A∗T∗C∗A∗C∗A∗T∗TGCCAGG∗G∗A∗T∗T∗A∗C∗C [DiG] double-labeled with digoxigenin (DIG) and biotin (BIO). In all cases, a control sample was used to subtract the background (HSA^LR treated with PBS for 9b2 and 9b2-KC ONs; HSA^LR treated with Scramble for 6aKC ONs).
Mouse handling and experimental procedures followed the European law regarding laboratory animal care and experimentation (2003/65/C.E.) and were approved by Conselleria de Agricultura, Generalitat Valenciana (reference no. A1539961490857). We used homozygous transgenic HSA^LR (line 20 b) mice,[90] which were kindly provided by Dr Thornton (Rochester, NY) and were housed and bred in our animal facility. Experimental groups were FVB as healthy control and HSA^LR treated with a scrambled ON (SC) and PBS as negative controls, and HSA^LR mice treated with all six experimental CPP-PMOs. The mice were randomly allocated to the different treatments as follows: in each cage, each mouse was ear-marked as it was taken out, and each mouse was then assigned to a different treatment. Animals were injected biweekly intravenously with 150 μL of 1× PBS vehicle (controls; HSA^LR n = 7 and FVB n = 6) or 150 μL of a solution 1.875 mg/mL of the test CPP-PMOs corresponding to an average dose of 9.2 mg/kg (HSA^LR mice: SC n = 5, 9b2-218 n = 5, 9b2-23b n = 5, […] n = 5, […] n = 5, 6aKC-218 n = 5, and 6aKC-23b n = 5; see Table S6 for precise dosing). Mice were sacrificed 45 days after the first injection and the tissues of interest were frozen in liquid nitrogen for the molecular and histological assays. All the mice used in this study ranged from 5 to 5.5 months of age and all were males.

[3] = tested on: IL-1β, IL-6, MCP-1, IL-12β, TNF-α, IL-15, Mstn-1; assay: Proinflammatory cytokines and Mstn-1 in quadriceps by qRT-PCR; type: in vivo, mouse
[4] = HSALR mice, 9.2 mg/kg (mean) i.v. x3, day 45, qRT-PCR

Substance | Mbnl1 Quads, WB assay (Mbnl1 protein; western blot) | MBNL1 protein levels vs untreated DM1 cells [1] | MBNL1 fold change ([1]; 200 nM) [fold] | CPP-PMO concentration (pM), Brain ([2]; 9.2 mg/kg) | CPP-PMO concentration (pM), Gastrocnemius ([2]; 9.2 mg/kg) | CPP-PMO concentration (pM), Heart ([2]; 9.2 mg/kg) | CPP-PMO concentration (pM), Kidney ([2]; 9.2 mg/kg) | CPP-PMO concentration (pM), Liver ([2]; 9.2 mg/kg) | CPP-PMO concentration (pM), Quadriceps ([2]; 9.2 mg/kg) | Mbnl1 Quads, WB assay (Mbnl1 protein; protein) | MBNL1 fold change ([1]; 1 μM) [fold] | CPP-PMO concentration (pM), Brain [2] [pM] | Mstn-1 expression in quadriceps [3, 4] | IL1β Quads (2^-ddCt qPCR assays) ([3]; mouse, in vivo) | IL6 Quads (2^-ddCt qPCR assays) ([3]; mouse, in vivo) | IL12β Quads (2^-ddCt qPCR assays) ([3]; mouse, in vivo) | IL15 Quads (2^-ddCt qPCR assays) ([3]; mouse, in vivo) | MCP-1 Quads (2^-ddCt qPCR assays) ([3]; mouse, in vivo) | TNF-α Quads (2^-ddCt qPCR assays) ([3]; mouse, in vivo) | IL-6 and IL-15 expression in quadriceps [3, 4]
6aKC-23b (antisense GGUAAUCCCUGGCAAUGUGAU; all phosphorodiamidate morpholino (PMO), T or U not given here; Pip6aKC peptide conjugated) | 1.13 | significant increases observed in MBNL1 protein levels | ~2.5 | 0.83 pM and 9.49 pM and 11.43 pM and 25.59 pM and 4.02 pM | 93.86 pM and 1846.67 pM and 1209.72 pM and 472.26 pM and 199.58 pM | 1789.14 pM and 954.01 pM and 1508.23 pM and 1701.45 pM | 174345.23 pM and 110334.18 pM and 239168.85 pM and 16740.44 pM and 230939.23 pM | 4615.98 pM and 9209.58 pM and 10333.80 pM and 76.40 pM and 8623.71 pM | 72.30 pM and 93.71 pM and 165.91 pM and 28.58 pM and 1.72 pM | – | – | – | – | – | – | – | – | – | – | –
6aKC-218 (antisense ACAUGGUUAGAUCAAGCACAA; all phosphorodiamidate morpholino (PMO), T or U not given here; Pip6aKC peptide conjugated) | – | significant increases observed in MBNL1 protein levels | – | – | 3105.34 pM and 4126.64 pM | 220.63 pM and 8031.17 pM and 1672.26 pM | 807303.00 pM and 163863.50 pM and 282189.80 pM and 288519.00 pM and 763252.10 pM | 11820.61 pM and 1738.96 pM and 6547.20 pM and 6702.77 pM and 6452.86 pM | 56.37 pM and 3449.73 pM and 180.55 pM | 1.02 | ~2 | 5.54 | – | – | – | – | – | – | – | –
9b2-23b (antisense GGUAAUCCCUGGCAAUGUGAU; all phosphorodiamidate morpholino (PMO), T or U not given here; Pip9b2 peptide conjugated) | 1.46 | – | – | 84.29 pM and 5.89 pM and 3.33 pM | 1173.05 pM and 672.99 pM and 96.96 pM | 458.72 pM and 70.02 pM and 540.73 pM | 417329.90 pM and 445161.13 pM and 596014.00 pM | 14705.39 pM and 13935.38 pM and 16995.86 pM | 664.60 pM and 444.65 pM and 237.24 pM | 1.46 | – | – | downregulation of Mstn-1 | 0.49 | 0.39 | 0.57 | 2.25 | 0.55 | 0.26 | –
9b2-218 (antisense ACAUGGUUAGAUCAAGCACAA; all phosphorodiamidate morpholino (PMO), T or U not given here; Pip9b2 peptide conjugated) | – | significant increases observed in MBNL1 protein levels | – | 33.45 pM and 18.40 pM and 128.86 pM | 504.97 pM and 1534.26 pM and 428.98 pM | 1166.04 pM and 1995.51 pM and 1662.31 pM | 348919.38 pM and 303314.43 pM and 726042.17 pM | 16959.56 pM and 11986.59 pM and 23535.44 pM | 482.70 pM and 1344.85 pM and 1437.67 pM | 1.58 | – | – | – | – | – | – | – | – | – | –
9b2KC-218 (antisense ACAUGGUUAGAUCAAGCACAA; all phosphorodiamidate morpholino (PMO), T or U not given here; Pip9b2KC peptide conjugated) | – | – | – | 6.68 pM and 4.47 pM and 1017.83 pM | 726.85 pM and 1065.08 pM and 788.22 pM | 1724.69 pM and 184.66 pM and 108.67 pM | 1320762.73 pM and 1455590.50 pM and 1409556.69 pM | 12456.78 pM and 13391.72 pM and 5588.09 pM | 37.03 pM and 1605.97 pM and 358.44 pM | 1.44 | – | – | – | – | – | – | – | – | – | –
TCTTACCTCAGTTACAATTTA-Pip9b2 [Scramble, reference compound] | – | – | – | – | – | – | – | – | – | 1.00 | – | – | not detected | – | – | – | – | – | – | reduced levels of IL-6 and IL-15
